Source: patent US20240141007A1
Values joined by “and” are separate entries in the source; they are usually repeats but may differ in a detail not shown here. Equal entries are not always repeated.

Columns and labels:
[1] = target: UCM22; test: cell-based or functional assay
[2] = target: UCM23; test: cell-based or functional assay

B1: MMP-7 (enzyme, UniProt P09237 95-267, looked up)
chain: YSLFPNSPKWTSKVVTYRIVSYTRDLPHITVDRLVSKALNMWGKEIPLHFRKVVWGTADIMIGFARGAHGDSYPFDGPGNTLAHAFAPGTGLGGDAHFDEDERWTDGSSLGINFLYAATHELGHSLGMGHSSDPNAVMYPTYGNGDPQNFKLSQDDIKGIQKLYGKRSNSRKK
In the case of B1, the Est. kcat/KM (cleavage efficiency) [1] is reported as 1800 M^-1S^-1 and 2100 M^-1S^-1 and the Est. kcat/KM (cleavage efficiency) [2] is reported as 2000 M^-1S^-1 and 2100 M^-1S^-1.
